Patent US20250026827A1 (Alector, published 2025)
Where two headings read alike, the source gives them in different places.

T1: mouse SIRPα D1-Fc (mouse, UniProt P97797 32-150, limits assumed)
T1 construct: domain: D1
T1 sequence (looked up): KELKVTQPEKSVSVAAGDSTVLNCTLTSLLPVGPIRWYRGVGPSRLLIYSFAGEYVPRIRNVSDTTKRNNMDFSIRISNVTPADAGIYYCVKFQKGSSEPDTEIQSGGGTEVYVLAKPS

T2: mouse SIRPβ1 on CHO cells (mouse)
T2 construct: Whole entry
T2 chain: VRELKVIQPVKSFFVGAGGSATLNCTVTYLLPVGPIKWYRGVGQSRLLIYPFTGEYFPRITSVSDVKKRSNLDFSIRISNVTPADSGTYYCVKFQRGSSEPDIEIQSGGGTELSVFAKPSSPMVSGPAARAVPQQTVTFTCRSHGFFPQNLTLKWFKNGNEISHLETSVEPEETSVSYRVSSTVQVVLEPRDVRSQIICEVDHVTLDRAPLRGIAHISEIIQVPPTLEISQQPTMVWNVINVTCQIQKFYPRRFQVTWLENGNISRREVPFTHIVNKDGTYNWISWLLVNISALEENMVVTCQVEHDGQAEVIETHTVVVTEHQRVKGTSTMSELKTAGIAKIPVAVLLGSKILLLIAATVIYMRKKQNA

T3: mouse SIRPα on cells (mouse, UniProt P97797 32-513)
T3 construct: whole, on cells
T3 sequence (looked up): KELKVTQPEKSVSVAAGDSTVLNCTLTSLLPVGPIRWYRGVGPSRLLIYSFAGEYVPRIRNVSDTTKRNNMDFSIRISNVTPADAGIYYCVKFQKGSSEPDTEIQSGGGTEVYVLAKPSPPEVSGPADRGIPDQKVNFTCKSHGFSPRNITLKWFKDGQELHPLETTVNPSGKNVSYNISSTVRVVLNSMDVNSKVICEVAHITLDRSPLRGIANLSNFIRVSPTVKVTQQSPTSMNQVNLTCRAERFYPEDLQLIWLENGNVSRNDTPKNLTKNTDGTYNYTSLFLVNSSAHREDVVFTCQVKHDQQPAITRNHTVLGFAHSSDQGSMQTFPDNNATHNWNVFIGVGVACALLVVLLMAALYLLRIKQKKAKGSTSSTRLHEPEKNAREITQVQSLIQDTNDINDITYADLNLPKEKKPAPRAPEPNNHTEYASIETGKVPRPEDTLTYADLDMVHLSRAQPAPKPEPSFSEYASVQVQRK


How the values were obtained:
[1] = target: T1, mouse SIRPα D1-Fc; assay: Octet
[2] = target: T4, human SIRPα on cells (human, UniProt P78324 31-504); assay: flow cytometry
T4 construct: Whole entry

[3] = target: T2, mouse SIRPβ1 on CHO cells; assay: flow cytometry
[4] = target: T3, mouse SIRPα on cells; assay: flow cytometry;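 as to FOB: antibodies tested at 1 µg/ml for 30 min on ice against receptor-expressing cells, detected with a PE-labelled secondary antibody, read as mean fluorescence intensity relative to background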
[5] = target: T5, human SIRPβ1 isoform 1 on cells (human, UniProt O00241 30-398); assay: flow cytometry
T5 construct: On CHO cells (low level), on BWZ/BW5147.G.1.4 cells (reporter cells co-express human DAP12) or on primary human myeloid cells; also called huSIRPβ1; BWZ-huSIRPβ1

[6] = target: T4, human SIRPα on cells; assay: flow cytometry; remark: listed apart in the source
[7] = target: T2, mouse SIRPβ1 on CHO cells; assay: flow cytometry
[8] = target: T3, mouse SIRPα on cells; assay: flow cytometry; remark: listed apart in the source;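 as to FOB: antibodies tested at 1 µg/ml for 30 min on ice against receptor-expressing cells, detected with a PE-labelled secondary antibody, read as mean fluorescence intensity relative to background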
[9] = target: T5, human SIRPβ1 isoform 1 on cells; assay: flow cytometry; remark: listed apart in the source
Protocol: (§1) Cells were then washed twice and incubated in 100 ul FACS buffer containing 0.5 μg/ml PE-conjugated secondary antibody for 30 minutes on ice. Cells were washed twice in cold FACS buffer and acquired on a BD FACS Canto. Data analysis and calculation of mean fluorescence intensity (MFI) values or 00 positive cells was performed with FlowJo (TreeStar) software version 10.0.7.
(§2) Given the high sequence similarity between receptors of the SIRPβ family, anti-SIRPβ1 antibodies were also screened for cross-reactivity to human SIRPα.

[10] = target: T4, human SIRPα on cells; assay: flow cytometry; remark: listed apart in the source
Protocol: as §1, §2

[11] = target: T2, mouse SIRPβ1 on CHO cells; assay: flow cytometry
Protocol: as §1, §2

[12] = target: T6, human SIRPβ1 domain 1 (D1) Fc fusion (human, UniProt O00241 30-148); assay: Octet, IgG avid
T6 construct: Made in HEK293/T cells with a heterologous signal peptide; also called Human SIRPβ1 D1-Fc; Human SIRPβ1-Fc; not shown: C-terminal human IgG1 Fc

[13] = target: T7, human SIRPα domain 1 (D1) Fc fusion (human, UniProt P78324 32-149); assay: Octet, IgG avid
T7 construct: also called human SIRPα D1-Fc; Human SIRPα Fc; not shown: C-terminal human IgG1 Fc

[14] = target: T8, Soluble, human SIRPβ1-Fc isoform 1 (O00241) (human, UniProt O00241 30-371, limits assumed); assay: ELISA, antigen coated
T8 construct: Whole entry named; also called human SIRPβ1 isoform 1

[15] = target: T5, human SIRPβ1 isoform 1 on cells; assay: cell-based or functional assay
[16] = target: T5, human SIRPβ1 isoform 1 on cells; assay: cell binding titration; target not given
[17] = target: T9, human SIRPβ1-Fc isoform 3 (Q5TFQ8) (human, UniProt Q5TFQ8 30-371, limits assumed); assay: ELISA on plate-coated huSirpB-Fc (Q5TFQ8.1), anti-human kappa-HRP, A450
T9 construct: Whole entry named; made in HEK293 cells; also called human SIRPβ1 isoform 3
Protocol: To ascertain if the selected anti-SIRPβ1 antibodies cross-reacted with other isoforms of human SIRPβ1 or with cynomolgus SIRPβ1, recombinant antigens based on human SIRPβ1 isoform 3 sequence and cynomolgus SIRPβ1 isoform 1 sequence were produced by transient transfection in HEK293 cells. Purified, Fc-tagged recombinant proteins were adsorbed onto 96-well plates at 1 μg/mL overnight at 4° C. Plates were subsequently washed with PBS+0.05% Tween-20 and blocked with 1% BSA+PBS for 2 hours at room temperature. Antibodies diluted in blocking buffer at 1 μg/mL were added to wells, serially diluted, and allowed to bind antigen overnight at 4° C. The following day, the primary antibodies were removed and anti-human kappa light chain antibody conjugated to horseradish peroxidase diluted 1:10,000 in blocking buffer were added to wells and incubated for 1 hour at room temperature. Plates were washed with PBS+0.05% Tween-20 and 100 μL of TMB substrate solution was added to wells to generate a colorimetric signal proportional to amount of anti-SIRPβ1 antibody bound to antigen. Once the reaction reached an appropriate color intensity, 100 μL of Stop solution was added to quench the enzyme.
Eight anti-SIRPβ1 antibodies (four parental antibodies and four corresponding affinity matured antibodies) were selected for analysis.

[18] = target: T7, human SIRPα domain 1 (D1) Fc fusion; assay: Octet
[19] = target: T5, human SIRPβ1 isoform 1 on cells; assay: flow cytometry titration, BWZ-huSIRPβ1 cells
Protocol: (§3) In these experiments, two antibodies previously described were used as positive controls: antibody 18D5 (an anti-SIRPβ antibody that cross-reacts with SIRPα and SIRPβ) and antibody KWAR23 (an anti-SIRPβ antibody that cross-reacts with SIRPα, SIRPβ, and SIRPγ). These antibodies were recombinantly produced on a human IgG4 backbone. […] Serial dilutions of each of the anti-SIRPβ1 monoclonal antibodies and control antibodies were added to 10⁵ cells and allowed to achieve binding equilibrium at 4° C. After addition of fluorescently-labeled secondary antibody and brief washing steps, MFI values as a function of titrated antibody concentration were recorded via FACS analysis.
In Table 14 below, EC50 values assign relative affinity by adding increasing concentrations of antibody variants to cells overexpressing SIRPβ 1. Receptor bound antibodies were detected by staining cells with anti-human IgG PE secondary antibody (Southern Biotech). Curves were fit using nonlinear regression analysis with Graphpad Prism 6 software.

[20] = target: T10, SIRPγ on Jurkat cells (human, UniProt Q9P1W8 29-387); assay: flow cytometry on Jurkat cells (endogenous SIRPγ), fold over isotype (MFI)
T10 construct: whole, on cells
Protocol: (§4) To determine antigen specificity of anti-SIRPβ1 antibodies of the present disclosure, cell-based affinity measurements were performed to ascertain the apparent affinities of affinity-matured anti-SIRPβ 1 antibodies to cell surface-expressed antigen. BW5147.G.1.4 cells, an immortalized mouse T-cell line, were engineered to overexpress human SIRPβ1 (BWZ-huSIRPβ1) or human SIRPα (BWZ-huSIRPα). Jurkat cells, an immortalized human T cell line, endogenously express SIRPγ.
as §3
(§5) Receptor bound antibodies were detected by staining cells with anti-human IgG PE secondary antibody (Southern Biotech). Curves were fit using nonlinear regression analysis with Graphpad Prism 6 software.

[21] = target: T4, human SIRPα on cells; assay: flow cytometry on BWZ cells overexpressing human SIRPα, fluorescent secondary antibody, MFI
Protocol: as §4, §3, §5

[22] = target: T6, human SIRPβ1 domain 1 (D1) Fc fusion; assay: Octet, Fab monovalent
Protocol: Briefly, Octet® affinity measurements were performed by loading IgGs on-line onto AHQ sensors. Sensors were equilibrated off-line in assay buffer for 30 min and then monitored on-line for 60 seconds for baseline establishment. For avid binding measurement, sensors with loaded IgGs were exposed to 100 nM antigen (human SIRPα or SIRPβ1 Fc fusion) for 3 min, and then transferred to assay buffer for 3 min for off-rate measurement. Additional avid binding was determined by loading biotinylated SIRPβ1 monomer on SA sensors and exposuring to 100 nM IgG in solution. Monovalent binding measurements were obtained by loading human SIRPβ1 Fc fusion antigens to AHQ sensor, followed by exposure to 100 nM anti-SIRPβ1 antibody Fab. Additional monovalent measurements were made by loading biotinylated human SIRPβ1 monomer to SA sensor followed by exposure to 100 nM Fab in solution. Kinetics data were fit using a 1:1 binding model in the data analysis software provided by ForteBio.

[23] = target: T11, Human SIRPβ HIS (human, UniProt O00241 30-148, limits assumed); assay: MSD-SET, Fab monovalent
T11 construct: detected with streptavidin, so biotinylated; also called recombinant human SIRPβ1; human SIRPβ1 monomer
T11 sequence (O00241 30-148 limits assumed): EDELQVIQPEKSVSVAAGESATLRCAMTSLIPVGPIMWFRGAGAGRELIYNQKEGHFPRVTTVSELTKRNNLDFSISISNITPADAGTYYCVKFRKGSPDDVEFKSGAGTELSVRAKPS

T6 sequence (O00241 30-148 limits assumed): as above
T5 sequence (O00241 30-398): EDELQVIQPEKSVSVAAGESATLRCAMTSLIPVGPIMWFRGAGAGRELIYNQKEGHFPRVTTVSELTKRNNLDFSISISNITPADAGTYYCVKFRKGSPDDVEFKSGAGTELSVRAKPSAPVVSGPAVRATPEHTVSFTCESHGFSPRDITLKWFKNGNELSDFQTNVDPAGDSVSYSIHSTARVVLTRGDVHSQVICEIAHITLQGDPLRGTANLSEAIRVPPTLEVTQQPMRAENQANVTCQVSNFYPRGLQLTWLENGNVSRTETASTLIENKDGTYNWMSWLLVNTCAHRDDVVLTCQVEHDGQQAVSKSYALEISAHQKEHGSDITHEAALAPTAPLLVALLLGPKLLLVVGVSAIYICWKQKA
T8 sequence (O00241 30-371 limits assumed, one chain of several): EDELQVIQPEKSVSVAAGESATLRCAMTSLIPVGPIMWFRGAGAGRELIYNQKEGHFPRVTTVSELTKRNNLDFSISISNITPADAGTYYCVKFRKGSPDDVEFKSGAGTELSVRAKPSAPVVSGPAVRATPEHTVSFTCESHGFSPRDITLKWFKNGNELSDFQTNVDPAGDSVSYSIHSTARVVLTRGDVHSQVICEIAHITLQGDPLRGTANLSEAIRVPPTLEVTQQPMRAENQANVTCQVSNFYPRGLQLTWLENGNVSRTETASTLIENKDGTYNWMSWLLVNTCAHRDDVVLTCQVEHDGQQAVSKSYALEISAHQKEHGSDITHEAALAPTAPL
T9 sequence (Q5TFQ8 30-371 limits assumed, one chain of several): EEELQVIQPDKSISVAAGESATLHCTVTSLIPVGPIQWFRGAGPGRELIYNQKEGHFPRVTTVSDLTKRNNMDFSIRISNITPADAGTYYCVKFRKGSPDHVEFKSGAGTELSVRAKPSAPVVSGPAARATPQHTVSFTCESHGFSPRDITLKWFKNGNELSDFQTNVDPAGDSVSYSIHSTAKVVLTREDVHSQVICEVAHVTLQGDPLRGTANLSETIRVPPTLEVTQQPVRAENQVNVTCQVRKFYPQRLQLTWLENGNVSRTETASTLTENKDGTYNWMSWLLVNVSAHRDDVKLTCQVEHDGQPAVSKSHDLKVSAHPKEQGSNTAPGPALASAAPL
T10 sequence (Q9P1W8 29-387): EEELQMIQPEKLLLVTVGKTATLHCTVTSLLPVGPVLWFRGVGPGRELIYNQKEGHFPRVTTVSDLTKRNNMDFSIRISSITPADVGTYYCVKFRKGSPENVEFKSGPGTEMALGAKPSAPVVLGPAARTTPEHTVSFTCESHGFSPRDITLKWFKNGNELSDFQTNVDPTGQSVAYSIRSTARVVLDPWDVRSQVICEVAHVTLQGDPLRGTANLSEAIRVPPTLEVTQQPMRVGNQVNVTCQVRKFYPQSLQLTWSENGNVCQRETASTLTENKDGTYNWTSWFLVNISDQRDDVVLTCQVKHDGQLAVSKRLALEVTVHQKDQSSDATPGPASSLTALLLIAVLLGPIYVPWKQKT

Binder	binding result [1]	binding result [2]	binding result [3]	binding result [4]	FOB [5] [fold over background]	FOB [6] [fold over background]	FOB [7] [fold over background]	FOB [8] [fold over background]	FOB [9] [fold over background]	FOB [10] [fold over background]	FOB [11] [fold over background]	binding result [13]	EC50 [14] [nM]	viable Raji-Luc cells with neutrophils and anti-CD20 [15] [%]	EC50 [16] [nM]	binding result [17]	further results
SB-1 (antibody, V domains shown, IgG; also called SB-1 (p)) VH: not shown VL: EIVMTQSPGTLSLSPGERATLSCRASQSVSSSYLAWYQQKPGQAPRLLIYGASSRATGIPDRFSGSGSGTDFTLTISRLEPEDFAVYYCQLLGSSPRTFGGGTKVEIK	no binding (tested: 100 nM)	no binding (tested: 1 ug/ml)	no binding (tested: 1 ug/ml)	no binding (tested: 1 ug/ml)	5.7	2.3	1.1	1.4	2	1	1	no binding (tested: 100 nM)	0.034	~50	0.072	no binding (tested: 1 ug/mL)	Kd [12]: 0.966 nM
SB-4 (antibody, V domains shown, IgG) VH: QVQLVQSGAEVKKPGASVKVSCKASGYTFTSYGISWVRQAPGQGLEWMGWISAYNGNTNYAQKLQGRVTMTTDTSTSTAYMELRSLRSDDTAVYYCARSGTHFGTYSYSNWFDPWGQGTLVTVSS VL: EIVLTQSPGTLSLSPGERATLSCRASQSVSSSYLAWYQQKPGQAPRLLIYGASSRATGIPDRFSGSGSGTDFTLTISRLEPEDFAVYYCQQYADAPITFGGGTKVEIK	no binding (tested: 100 nM)	no binding (tested: 1 ug/ml)	no binding (tested: 1 ug/ml)	no binding (tested: 1 ug/ml)	1.7	2	1.2	0.9						~50			binding result [18]: no binding (tested: 100 nM)
SB-2 (antibody, V domains shown, IgG; also called SB-2 (p)) VH: QVQLVESGGGVVQPGRSLRLSCAASGFTFSSYGMNWVRQAPGKGLEWVAVIWYDGSNKYYADSVKGRFTISRDNSKNTLYLQMNSLRAEDTAVYYCARDQTAAAAIWGMDVWGQGTTVTVSS VL: EIVLTQSPGTLSLSPGERATLSCRASQSVSSSYLAWYQQKPGQAPRLLIYGASSRATGIPDRFSGSGSGTDFTLTISRLEPEDFAVYYCQQSSSHPFTFGGGTKVEIK	no binding (tested: 100 nM)	no binding (tested: 1 ug/ml)	no binding (tested: 1 ug/ml)	no binding (tested: 1 ug/ml)	8.7	3	1.3	1.1	2	1	1	no binding (tested: 100 nM)	0.032	~50	0.235	no binding (tested: 1 ug/mL)	Kd [12]: 1.97 nM
SB-8-13 (antibody, V domains shown, IgG) VH: QVQLQESGPGLVKPSETLSLTCAVSGYSISAHYYWGWIRQPPGKGLEWIGSIFHSGHTYYNPSLKSRVTISVDTSKNQFSLKLSSVTAADTAVYYCARGGAMTPAGMDVWGQGTTVTVSS VL: EIVMTQSPGTLSLSPGERATLSCRASQSVSSSYLAWYQQKPGQAPRLLIYGASNRATGIPDRFSGSGSGTDFTLTISRLEPEDFAVYYCQQVYSSPYTFGGGTKVEIK			no binding (tested: 1 ug/ml)						7	1	2	no binding (tested: 100 nM)	0.019		0.253	no binding (tested: 1 ug/mL)	EC50 [19]: 0.199 nM; binding result [20]: no binding (tested: Log nM about 1.8 (about 60 nM)); binding result [21]: no binding (tested: Log nM about 0.8 (about 7 nM))
SB-8-13 Fab (Fab, V domains shown, Fab by papain digestion) VH: QVQLQESGPGLVKPSETLSLTCAVSGYSISAHYYWGWIRQPPGKGLEWIGSIFHSGHTYYNPSLKSRVTISVDTSKNQFSLKLSSVTAADTAVYYCARGGAMTPAGMDVWGQGTTVTVSS VL: EIVMTQSPGTLSLSPGERATLSCRASQSVSSSYLAWYQQKPGQAPRLLIYGASNRATGIPDRFSGSGSGTDFTLTISRLEPEDFAVYYCQQVYSSPYTFGGGTKVEIK																	Kd [22]: 2.85 nM; Kd [23]: 0.063 nM
SB-8-14 Fab (Fab, V domains shown, Fab by papain digestion) VH: QVQLQESGPGLVKPSETLSLTCAVSGYSISPHYYWGWIRQPPGKGLEWIGSIYHSGHTYYNPSLKSRVTISVDTSKNQFSLKLSSVTAADTAVYYCARGGAMTPAGMDVWGQGTTVTVSS VL: EIVMTQSPGTLSLSPGERATLSCRASQSVSSSYLAWYQQKPGQAPRLLIYGASNRATGIPDRFSGSGSGTDFTLTISRLEPEDFAVYYCQQVYSSPYTFGGGTKVEIK																	Kd [22]: 3.25 nM; Kd [23]: 0.053 nM
SB-2-8 (antibody, V domains shown, IgG) VH: QVQLVESGGGVVQPGRSLRLSCAASGFTFLDYGMHWVRQAPGKGLEWVSAISAFAGSTYADSVKGRFTISRDNSKNTLYLQMNSLRAEDTAVYYCARDQTAAAAIWGMDVWGQGTTVTVSS VL: EVVLTQSPGTLSLSPGERATLSCRASQSVSSSYLAWYQQKPGQAPRLLIYGASSRATGIPDRFSGSGSGTDFTLTISRLEPEDFAVYYCQQSSSHPFTFGGGTKVEIK			no binding (tested: 1 ug/ml)						5	1	1	no binding (tested: 100 nM)			0.174		EC50 [19]: 0.203 nM; binding result [20]: no binding (tested: Log nM about 1.8 (about 60 nM)); binding result [21]: no binding (tested: Log nM about 0.8 (about 7 nM))
SB-3 (antibody, V domains shown, IgG) VH: not shown VL: EIVMTQSPATLSLSPGERATLSCRASQSVSSYLAWYQQKPGQAPRLLIYDASNRATGIPARFSGSGSGTDFTLTISSLEPEDFAVYYCQQRLFHPPTFGGGTKVEIK	no binding (tested: 100 nM)	no binding (tested: 1 ug/ml)	no binding (tested: 1 ug/ml)	no binding (tested: 1 ug/ml)	2.5	1.8	1.3	1.3						~50			binding result [18]: no binding (tested: 100 nM)
